From the supplement of paper PMC11246515
± gives the standard deviation of the averaged measurements.

Assay: total protein half-life in vivo (active degradation + dilution); higher = more stable protein
[1] = E. coli NCM3722 delta-clpP delta-lon delta-hslV, growth: N-lim chemostat, doubling time 6 h
[2] = E. coli NCM3722 delta-clpP, growth: N-lim chemostat, doubling time 6 h
[3] = E. coli NCM3722 delta-hslV, growth: N-lim chemostat, doubling time 6 h
[4] = E. coli NCM3722 delta-lon, growth: N-lim chemostat, doubling time 6 h
[5] = E. coli NCM3722 delta-smpB, growth: N-lim chemostat, doubling time 6 h
[6] = wild type E. coli NCM3722, growth: C-lim chemostat, doubling time 3 h
[7] = wild type E. coli NCM3722, growth: C-lim chemostat, doubling time 6 h
[8] = wild type E. coli NCM3722, growth: C-lim chemostat, doubling time 12 h
[9] = wild type E. coli NCM3722, growth: N-lim chemostat, doubling time 6 h
[10] = wild type E. coli NCM3722, growth: N-lim chemostat, doubling time 12 h
[11] = wild type E. coli NCM3722, growth: P-lim chemostat, doubling time 6 h
[12] = wild type E. coli NCM3722, growth: P-lim chemostat, doubling time 12 h

Sequence | total protein half-life in vivo [1] | total protein half-life in vivo [2] | total protein half-life in vivo [3] | total protein half-life in vivo [4] | total protein half-life in vivo [5] | total protein half-life in vivo [6] | total protein half-life in vivo [7] | total protein half-life in vivo [8] | total protein half-life in vivo [9] | total protein half-life in vivo [10] | total protein half-life in vivo [11] | total protein half-life in vivo [12]
MEQRHITGKSHWYHETQSSTTEYDVLPLVPEAAKVSDPFLLDVILEKETLAPFLSWLDPARVLAVDLFPDQLTVTRSQTFTAYERLSTALTVAQVCGVQRLCNYYSARLTPLPGPDSTRESNHRLAQITQYARQLASSPSIIDNRSRQHLNDVGLTAWDCVIISQIIGFIGFQARTIATFQAYLGHPVRWLPGLEIQNYADASLFADESLRWRSSYEVEKLPEEHTKSSTAELCQLAEILSLHPISLSLLEKLLNSTRGNTQPDNQLAALLCARINGSPACFATCMDSSNEYKKISTLMRKGENEINQWADRHSVERATVQAIQWLTRAPDRFSAAQFSPLLEHEKSSTQIINLLVWSGLCGWINRLKIALGETY | 6.43 ± 1.4 h | 1.97 ± 0.21 h | 1.97 ± 0.55 h | 1.26 h | 1.07 ± 0.024 h | 1.25 ± 0.085 h | 1.21 ± 0.12 h | 1.93 ± 0.13 h | 1.31 ± 0.044 h | 6.39 ± 6 h | 1.32 ± 0.4 h | 2.65 ± 0.49 h
MKTGMFTCGHQRLPIEHAFRDASELGYDGIEIWGGRPHAFAPDLKAGGIKQIKALAQTYQMPIIGYTPETNGYPYNMMLGDEHMRRESLDMIKLAMDMAKEMNAGYTLISAAHAGYLTPPNVIWGRLAENLSELCEYAENIGMDLILEPLTPYESNVVCNANDVLHALALVPSPRLFSMVDICAPYVQAEPVMSYFDKLGDKLRHLHIVDSDGASDTHYIPGEGKMPLRELMRDIIERGYEGYCTVELVTMYMNEPRLYARQALERFRALLPEDER | 7.09 h | – | – | – | – | > 4 h | – | 6.86 h | – | – | – | –
MTDNTYQPAKVWTWDKSAGGAFANINRPVSGPTHEKTLPVGKHPLQLYSLGTPNGQKVTIMLEELLALGVTGAEYDAWLIRIGDGDQFSSGFVEVNPNSKIPALRDHTHNPPIRVFESGSILLYLAEKFGYFLPQDLAKRTETMNWLFWLQGAAPFLGGGFGHFYHYAPVKIEYAINRFTMEAKRLLDVLDKQLAQHKFVAGDEYTIADMAIWPWFGNVVLGGVYDAAEFLDAGSYKHVQRWAKEVGERPAVKRGRIVNRTNGPLNEQLHERHDASDFETNTEDKRQG | 5.11 ± 0.38 h | 5.1 ± 0.095 h | 4.77 ± 0.093 h | 5.02 ± 0.099 h | 4.78 ± 0.57 h | 3.18 ± 0.21 h | 5.63 ± 0.16 h | 9.78 ± 2.2 h | 5.31 ± 0.2 h | 9.72 ± 3.6 h | 5.6 ± 0.21 h | 11.8 ± 0.8 h
MRKKIEMSLIKSPANGVVIKRKISDGLKEIVSLKEKILLETTAKIQSIEEKREEKFIQGYYDGYTKGIIDEMDNFIPLISLLCSELEKKRINMINDLKSILLKPSEEVDVFIKIFESWVTKLPSISGPVNLHIPTSFKDKSLEVESYFVDKSIWNVHITFHDDKRFVFFTDQFIAEFSPQEFVDNCEQYLINNHCFSPDKVNEICEQARHYLVEKMFETHSLDMNNSVLASPEDL | – | – | – | – | – | – | – | – | – | > 16 h | – | –
MLPSQSPAIFTVSRLNQTVRLLLEHEMGQVWISGEISNFTQPASGHWYFTLKDDTAQVRCAMFRNSNRRVTFRPQHGQQVLVRANITLYEPRGDYQIIVESMQPAGEGLLQQKYEQLKAKLQAEGLFDQQYKKPLPSPAHCVGVITSKTGAALHDILHVLKRRDPSLPVIIYPAAVQGDDAPGQIVRAIELANQRNECDVLIVGRGGGSLEDLWSFNDERVARAIFTSRIPVVSAVGHETDVTIADFVADLRAPTPSAAAEVVSRNQQELLRQVQSTRQRLEMAMDYYLANRTRRFTQIHHRLQQQHPQLRLARQQTMLERLQKRMSFALENQLKRTGQQQQRLTQRLNQQNPQPKIHRAQTRIQQLEYRLAETLRAQLSATRERFGNAVTHLEAVSPLSTLARGYSVTTATDGNVLKKVKQVKAGEMLTTRLEDGWIESEVKNIQPVKKSRKKVH | 6.078 ± 0.013 h | 5.772 ± 0.023 h | 6.48 ± 0.87 h | 5.98 ± 0.4 h | 5.71 ± 0.13 h | 3.32 ± 0.21 h | 6.11 ± 0.37 h | 11.39 ± 0.059 h | 5.89 ± 0.5 h | 12.33 ± 0.035 h | 6.05 ± 0.67 h | 13.1 ± 2.8 h
MQIVMFDRQSIFIHGMKISLQQRIPGVSIQGASQADELWQKLESYPEALVMLDGDQDGEFCYWLLQKTVVQFPEVKVLITATDCNKRWLQEVIHFNVLAIVPRDSTVETFALAVNSAAMGMMFLPGDWRTTPEKDIKDLKSLSARQREILTMLAAGESNKEIGRALNISTGTVKAHLESLYRRLEVKNRTQAAMMLNISS | 4.46 h | – | – | – | – | – | – | – | – | – | – | –
MSNITIYHNPACGTSRNTLEMIRNSGTEPTIIHYLETPPTRDELVKLIADMGISVRALLRKNVEPYEELGLAEDKFTDDRLIDFMLQHPILINRPIVVTPLGTRLCRPSEVVLEILPDAQKGAFSKEDGEKVVDEAGKRLK [P0AB96] | 6.69 ± 0.8 h | 5.24 h | – | – | 3.72 h | – | 6.14 ± 0.37 h | 8.79 ± 1.4 h | 3.41 ± 1.2 h | 6.1 h | 5.09 h | 9.63 ± 0.02 h
